Here are results for eight molecules from US20180312579A1 (Genentech, published 2018).

One assay deals with T1, cynomolgus RSPO2 (cynomolgus, UniProt G7PCH9 22-243).
T1 construct: also called cynoRSPO2; rcynoRSPO2
Nature of the assay: SPR (Biacore) with the Fab; table row RSPO2, Affinity (nM) Fab. As to the method:
(§1) For kinetic measurements, two-fold serial dilutions of anti-RSPO Fabs were injected in HBS-P buffer (0.01M HEPES pH 7.4, 0.15M NaCl, 0.005% surfactant P20) at 25° C. with a flow rate of 30 μl/min. Association rates (kₒₙ) and dissociation rates (koff) were calculated using a simple one-to-one Langmuir binding model (BIAcore Evaluation Software version 3.2). The equilibrium dissociation constant (KD) was calculated as the ratio koff/kₒₙ.
(§2) Surface plasmon resonance was used to confirm binding specificities and affinities to human, mouse, and cynomolgus RSPOs. Fab fragments from antibody clones were digested, purified, and then assayed using a BIAcore™-2000 instrument for binding to recombinant proteins. Antibodies fell into three groups: those specific to RSPO2, those specific to RSPO3, and those with some degree of cross-reactivity (FIG. 5).

For the next assay, the target named is T2, mouse RSPO2 (mouse, UniProt Q8BFU0 22-205, limits assumed).
T2 construct: also called mRSPO2
T2 sequence (Q8BFU0 22-205 limits assumed): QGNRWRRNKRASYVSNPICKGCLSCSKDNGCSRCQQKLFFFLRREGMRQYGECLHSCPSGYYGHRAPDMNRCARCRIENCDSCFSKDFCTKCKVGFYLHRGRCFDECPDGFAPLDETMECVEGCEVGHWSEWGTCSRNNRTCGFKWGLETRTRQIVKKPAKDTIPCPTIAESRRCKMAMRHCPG
The assay is described as above. As to the method:
as §1, §2

In assay [1] the target is T3, recombinant human RSPO3 (human, UniProt Q9BXY4 22-272).
T3 construct: also called rhRSPO3; hRSPO3
T3 sequence: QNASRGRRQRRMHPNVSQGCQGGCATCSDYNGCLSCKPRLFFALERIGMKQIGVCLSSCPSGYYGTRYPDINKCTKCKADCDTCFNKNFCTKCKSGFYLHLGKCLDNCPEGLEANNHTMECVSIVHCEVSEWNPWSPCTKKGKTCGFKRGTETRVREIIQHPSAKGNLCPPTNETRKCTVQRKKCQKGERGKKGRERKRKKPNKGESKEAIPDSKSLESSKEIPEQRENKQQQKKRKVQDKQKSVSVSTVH
Nature of the assay: SPR (Biacore) with the Fab; table row RSPO3, Affinity (nM) Fab. On the procedure:
as §1, §2

Assay [2] deals with T4, cynomolgus RSPO3 (cynomolgus, UniProt A0A2K5UTQ7 22-273).
T4 construct: also called cynoRSPO3; rcynoRSPO3
T4 sequence: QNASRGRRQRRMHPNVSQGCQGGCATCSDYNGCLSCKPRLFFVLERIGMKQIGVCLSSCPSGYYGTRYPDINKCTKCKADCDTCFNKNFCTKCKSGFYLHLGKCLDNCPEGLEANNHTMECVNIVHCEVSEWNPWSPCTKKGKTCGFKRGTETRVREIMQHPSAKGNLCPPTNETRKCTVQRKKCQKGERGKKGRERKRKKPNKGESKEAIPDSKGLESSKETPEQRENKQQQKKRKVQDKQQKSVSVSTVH
The assay is described as above. On the procedure: as §1, §2

The target of assay [3] is T5, mouse RSPO3 (mouse, UniProt Q2TJ95 22-277, limits assumed).
T5 construct: also called mRSPO3; murine RSPO3
T5 sequence (looked up): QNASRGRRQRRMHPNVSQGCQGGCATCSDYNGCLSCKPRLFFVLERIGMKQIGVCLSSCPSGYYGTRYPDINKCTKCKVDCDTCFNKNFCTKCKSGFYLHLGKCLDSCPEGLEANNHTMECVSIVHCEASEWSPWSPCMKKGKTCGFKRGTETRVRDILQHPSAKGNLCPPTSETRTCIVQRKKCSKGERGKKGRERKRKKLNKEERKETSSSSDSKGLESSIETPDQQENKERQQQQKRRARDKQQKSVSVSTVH
The description is as above. On the procedure: as §1, §2

The target in assay [4] is T3, recombinant human RSPO3. Kind of assay: SPR, BIAcore T200, huRSPO3 immobilized, antibody injected. As to the method:
(§3) The binding affinity of the antibodies in this section was determined by BIAcore™ T200 Format. Briefly, BIAcore™ research grade CMS chips were activated with 1-ethyl-3-(3-dimethylaminopropyl) carbodiimide (EDC) and N-hydroxysuccinimide (NETS) reagents according to the supplier's instructions. huRSPO3 was immobilized to achieve approximately 50 response units (RU) in each flow cell. Unreacted coupling groups were blocked with 1M ethanolamine. For kinetics measurements, Four-fold serial dilutions of variant antibody was injected in HBS-P buffer (0.01M HEPES pH7.4, 0.15M NaCl, 0.005% surfactant P20) at 25° C. with a flow rate of 30 μl/min. Association rates (kon) and dissociation rates (koff) were calculated using a 1:1 Langmuir binding model (BIAcore™ T200 Evaluation Software version 2.0). The equilibrium dissociation constant (Kd) was calculated as the ratio koff/kon.

In assay [5] the target is T4, cynomolgus RSPO3. Nature of the assay: SPR, BIAcore T200, cyno RSPO3 immobilized, antibody injected. On the procedure: as §3
(§4) The hu5D6v4.1 and the chimeric 5D6 were tested for their ability to bind cyno and mouse RSPO3 as described above except that cyno or murine RSPO3 replaced huRSPO3 in the binding assay. Binding properties for the humanized antibodies are shown below in Table 5.

The target of assay [6] is T5, mouse RSPO3. Kind of assay: SPR, BIAcore T200, murine RSPO3 immobilized, antibody injected. As to the method:
as §3, §4

For a further assay, the target named is T6, recombinant human RSPO2 (human, UniProt Q6UXX9 22-243).
T6 construct: Recombinant protein of the WNT reporter assays and of the Octet binning (R&D Systems; biotinylated for Octet); also called rhRSPO2; hRSPO2
T6 sequence (Q6UXX9 22-243): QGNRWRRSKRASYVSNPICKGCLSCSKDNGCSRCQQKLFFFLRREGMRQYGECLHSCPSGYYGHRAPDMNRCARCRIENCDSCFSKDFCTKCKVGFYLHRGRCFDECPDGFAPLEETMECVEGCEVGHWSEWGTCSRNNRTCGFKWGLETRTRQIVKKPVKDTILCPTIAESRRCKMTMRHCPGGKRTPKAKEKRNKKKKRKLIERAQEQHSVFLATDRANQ
Kind of assay: SPR (Biacore) with the Fab; table row RSPO2, Affinity (nM) Fab. On the procedure: as §1, §2

Assay [7] deals with T7, FLAG-tagged human RSPO2 (Genentech) (human, UniProt Q6UXX9 22-243).
T7 construct: also called hRSPO2; RSPO2 coated plates; not shown: FLAG tag
T7 sequence (Q6UXX9 22-243): as above
Kind of assay: competitive binding ELISA: titrated against biotinylated RNF43-Flag (RNF43-ECD) binding to plate-coated hRSPO2; signal = bound RNF43, normalized OD.

Assay [8] has as its target T8, FLAG-tagged human RSPO3 (Genentech) (human, UniProt Q9BXY4 22-272).
T8 construct: also called hRSPO3; RSPO3 coated plates; not shown: FLAG tag
T8 sequence: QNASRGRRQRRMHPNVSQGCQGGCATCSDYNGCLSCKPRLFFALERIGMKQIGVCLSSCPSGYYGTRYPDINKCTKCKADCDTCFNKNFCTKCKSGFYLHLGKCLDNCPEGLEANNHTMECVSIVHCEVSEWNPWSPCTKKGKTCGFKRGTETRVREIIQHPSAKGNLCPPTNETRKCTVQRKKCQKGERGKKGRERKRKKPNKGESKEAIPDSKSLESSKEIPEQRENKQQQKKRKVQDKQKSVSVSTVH
Nature of the assay: competitive binding ELISA: titrated against biotinylated RNF43-Flag (RNF43-ECD) binding to plate-coated hRSPO3; signal = bound RNF43, normalized OD.

T1 sequence (G7PCH9 entry or part of it): as the sequence (Q6UXX9 22-243) above, with V160A, L165P, T178A counted along it

B1: 5E11 (Fab, V domains shown)
VH: QVQLKQSGPGLVQPSQSLSITCTVSGFSLSSYAVHWVRQSPGEGLEWLGVIWSGGSTDYNAAFISRMSITKDNSKSQVFFKMNSLQADDTAIYFCARNDGYYYFDYWGQGTTLTVSS
VL: DIVMTQSTSSLSASLGDRVTISCRASQDISNYLNWYQQKPDGTVKLLIYYTSRLHSGVPSRFSGSGSGTDYSLTISNLEKEDVATYFCQHGDTLPPTFGGGTKLEIK
notes: also called Fab of 5E11; 5E11 Fab
For B1, the binding result with cynomolgus RSPO2 and in the assay with mouse RSPO2 was “no binding” throughout. Moreover, the Kd is 10.6 nM in the assay with recombinant human RSPO3 [1], 39 nM with cynomolgus RSPO3 [2] and 98 nM with mouse RSPO3 [3].

B2: 5C2 (Fab, V domains shown)
VH: EVQLQESGPGLVAPSQSLSITCTVSGFSLTSYGVHWVRQPPGKGLEWLGVIWTGGSTNYNSALMSRLSISKDNSKSQVFLKMNSLQTDDTAMYYCARVDGYYYFDYWGQGTTLTVSS
VL: DIVMTQSTSSLSASLGDRVTISCRASQDISNYLNWYQQKPDGTVKLLIYYTSRLHSGVPSRFSGSGSGTDYSLTISNLEPEDIATYFCQQGDTLPPTFGGGTKLEIK
notes: also called Fab of 5C2; 5C2 Fab
For the molecule B2, the binding result with cynomolgus RSPO2 and with mouse RSPO2 was “no binding” each time. For the same molecule, the Kd with recombinant human RSPO3 [1] was determined as 17 nM; with cynomolgus RSPO3 [2], 70 nM; in the assay with mouse RSPO3 [3], 63 nM.

B3: hu5D6v4.1 (Fab, V domains shown)
VH: EVQLVESGPGLVKPSETLSLTCTVSGDSITSGYWNWIRQPPGKGLEWIGYISYSGKTYQNPSLKSRVTISRDTSKNQFSLKLSSVTAADTAVYYCATYYGYGGPWFAYWGQGTLVTVSS
VL: DIQMTQSPSSLSASVGDRVTITCKASQDIDSYLSWFQQKPGKAPKTLIYLTNRLVDGVPSRFSGSGSGTDYTLTISSLQPEDFATYYCLHYDEFPLTFGQGTKVEIK
notes: Humanized 5D6 variant; also called v1+T69 (LC)+(W47+I48+V67+F78 (HC))
Take B3: in the assay with recombinant human RSPO3 [4], the Kd was 0.0635 nM, the koff was 0.000229 s⁻¹ and the kon was 3.6e+06 M⁻¹ s⁻¹. Moreover, in the assay with cynomolgus RSPO3 [5], binding was put at a Kd of 0.0811 nM, the koff is 0.000434 s⁻¹ and the kon was 5.35e+06 M⁻¹ s⁻¹. In the assay with mouse RSPO3 [6], this molecule registered a Kd of 0.0993 nM, a dissociation rate constant (koff) of 0.000423 s⁻¹ and an on-rate constant (kon) of 4.26e+06 M⁻¹ s⁻¹.

B4: Fab 26E11 (Fab, V domains shown)
VH: EVQLQESGPSLVKPSQTLSLTCSVTGDSITSGYWSWIRKFPGNKLEFMGYISFSGKTYYIPSLKSRVSITRDTSKNQYYLQLNSVTTEDTATYYCATYHGYGGPWFAYWGQGTLVTVSS
VL: DIKMTQSPSSMYASLGERVTITCKASQDIDSYLSWFQQKPGKSPKTLIYLTNRLIDGVPSRFSGSGSGQDYSLTINSLEYEDMGIYYCLQYDEFPVTFGAGTRLEIK
notes: Fab expressed in E. coli for crystallography; also called 26E11 Fab
Turning to B4, the Kd with recombinant human RSPO2 was 80 nM; with cynomolgus RSPO2, 62 nM; in the assay with mouse RSPO2, 66 nM; in the assay with recombinant human RSPO3 [1], 0.7 nM; with cynomolgus RSPO3 [2], 2.43 nM; with mouse RSPO3 [3], 1.42 nM.

B5: 36D2 (Fab, V domains shown)
VH: QIQLQESGPGLVKPSQSLSLTCSVTGNSITSSDWSWIRQFPGKKLEWMGYMNYGGGTYYNPSLENRISITRDTSKNQFFLHLKSVTTEDTATYYCARERPHPYAYFDVWGQGIQVTVSS
VL: ELVFTQPQSVSGSLGQEISISCTRSSGNIGSNYVSWYQQQSSNKPRLLIYKFDQRPSGVPDRFSGSTDSSSNSGILTISRLQPEDEGDYYCLSGYDKYVFGSGTQLTLL
notes: also called Fab of 36D2; 36D2 Fab
For B5, the Kd amounted to 6.3 nM in the assay with recombinant human RSPO2, 11 nM with cynomolgus RSPO2 and 5.5 nM in the assay with mouse RSPO2. For the same molecule, the binding result with recombinant human RSPO3 [1], with cynomolgus RSPO3 [2] and with mouse RSPO3 [3] was “no binding” in each case.

B6: 1A1 (Fab, V domains shown)
VH: EVQLVESGGGLVKPEGSLKLSCVASGFTFSDYFMSWVRQAPGQGLEWVAHIYTKTYNYATYYSGSVKGRFSISRDDSRNMVYLQMNNLRTEDTATYYCTTDEDWYFDFWGQGTQVTVSS
VL: QPVLTQSPSVSASLGASVKLTCTLSSQHSTNYIEWYQQHPDKSPKFLMQVRDGSHSKGDGTPDRFSGSSSGAHRYLSISNLQLEDEAIYYCGLSDVSLYLFGSGTQLTLL
notes: also called Fab of 1A1; 1A1 Fab
Consider B6, for which the Kd worked out at 2.9 nM in the assay with recombinant human RSPO2, 1.4 nM with cynomolgus RSPO2 and 3.6 nM with mouse RSPO2. Moreover, the binding result in the assay with recombinant human RSPO3 [1], with cynomolgus RSPO3 [2] and in the assay with mouse RSPO3 [3] was “no binding” in each case.

B7: 11F11 (Fab, V domains shown)
VH: QVQLQQSGPQLVKPGFSVKFSCKASGITFTEYYVTWVKQRAGQGLEWVGDIDPENGDTDYNQKFQGKATITADKSSSTAYMELSSLTSEDSAVYYCATGYDYAFDSWGQGTLVTVSS
VL: QPVLTQSPSASASLGASVKLTCTLSSQHSSYGITWLQQHPDKAPKCVMYLRSDGSHSKGDGIPDRFSGSSSGAHRYLSISNVQPEDEAIYFCVTYDSTVGVFGSGTQLTVP
notes: also called Fab of 11F11; 11F11 Fab
As for B7, the Kd in the assay with recombinant human RSPO2 came to 63 nM. Further, the binding result with mouse RSPO2, in the assay with recombinant human RSPO3 [1], with cynomolgus RSPO3 [2] and with mouse RSPO3 [3] was “no binding” in each case.

B8: RNF43 (receptor)
chain: GFGRTGLVLAAAVESERSAEQKAIIRVIPLKMDPTGKLNLTLEGVFAGVAEITPAEGKLMQSHPLYLCNASDDDNLEPGFISIVKLESPRRAPRPCLSLASKARMAGERGASAVLFDITEDRAAAEQLQQPLGLTWPVVLIWGNDAEKLMEFVYKNQKAHVRIELKEPPAWPDY
notes: kept apart from the biotinylated tracer m34; not shown: FLAG tag and any linker to it
With B8, the “IC50 (read off the curve)” value was approximately 0.2 µg/mL in [7] and approximately 0.5 µg/mL in assay [8].
